Data: US20230146533A1, “KERATIN BD-10, PREPARATION METHOD THEREFOR AND PHARMACEUTICAL COMPOSITION AND USE THEREOF” (INSTITUTE OF MATERIA MEDICA, CHINESE ACADEMY OF MEDICAL …, priority 2019, published 2023)

What was measured:
[1] = test system: mice cough induced by ammonia water; experiment: Antitussive test, cough induced by ammonia water in mice; type: in vivo, ICR mice; conditions: for Incubation period (cough) / Number of coughs: 10% ammonia water atomized 10 seconds one hour later, X ± SEM; for Number of coughs: coughs within 2 minutes
Procedure: Animals: male ICR mice; Drugs and reagents: dextromethorphan hydrobromide, ammonia water, 0.2% CMC-Na, protein BD-10; Apparatus: Compressed nebulizer (403T type), balance (XS105DU type). Experiment grouping: • Solvent control group; • Dextromethorphan 15 mg/kg group; • Protein BD-10, 20 mg/kg group, 50 mg/kg group.
Dextromethorphan and different doses of protein BD-10 (administration volume 10 ml/kg) were given orally in groups, and the solvent control group was given the same volume of distilled water. One hour later, mice were put into a sealed box and atomized 10% ammonia water for 10 seconds, and then observed and recorded the incubation period of cough in mice and the number of coughs in 2 minutes.
Record the time point of oral administration, the time point of atomization experiment, the incubation period of mice cough and the number of coughs within 2 minutes, respectively. The incubation period of cough refers to the number of seconds from the start of the atomization of ammonia to the occurrence of cough. The performance of coughing in mice is based on contraction of their abdominal muscles (breast contraction) and opening their mouths at the same time. Calculate the mean and standard error of each group of data, and use TTEST to compare the model group with other groups, and P<0.05 is considered as a significant difference.

[2] = test system: PTZ-induced epilepsy in mice; experiment: Pentylenetetrazole (PTZ) induced epilepsy in mice; type: in vivo, ICR mice; conditions: for Grade IV seizure rate / mortality rate / Grade III seizure incubation period / Grade IV seizure incubation period / Cases of deaths / Cases of Grade IV: PTZ 65 mg/kg i.p.; for Grade IV seizure rate / mortality rate: 10 mice; for Grade III seizure incubation period / Grade IV seizure incubation period: mean ± SEM; for Grade IV seizure incubation period: mice not reaching Grade IV recorded as maximum 900 seconds; for Cases of deaths / Cases of Grade IV: of 10 mice; for Cases of Grade IV: 15 minutes observation
Procedure: Medicines: Pentylenetetrazol (PTZ), Retigabine, Protein BD-10.
Experiment grouping: • Model group; • Retigabine 60 mg/kg group; • Protein BD-10, 50 mg/kg group, 200 mg/kg group;
The drug was administered once in the afternoon the day before modeling, On the day of modeling, PTZ-65 mg/kg (modeling agent) was injected intraperitoneal 1 hour after the test drug was administered intragastrically, and the positive drug can be administered once half an hour before modeling. Continue to observe for 15 minutes after injection of PTZ.
Observation index: (1)Seizure situation: the time of seizures from Grade III to Grade VI; (2)Death situation
Seizure grade: Refer to Racine grading standard: Grade 0: No response; Grade I: manifested as twitching of facial muscles or the corners of the mouth; Grade II: can nod; Grade III: twitching of one limb; Grade IV: rigidity or body twitching; Grade V: generalized epilepsy (generalized tonic seizures).
Count the cases of seizures and deaths in each group of mice in the experiment; Grade III and IV incubation period. The incubation period of mice that have not attacked to Grade IV is recorded as the maximum of 900 seconds. Chi-square test was used for statistics of the number of cases. Calculate the mean and standard error of the incubation period. Use TTEST to compare the model group with other groups, and P<0.05 is considered as a significant difference.

[3] = test system: lipopolysaccharide (LPS) induced fever in SD rats; experiment: Lipopolysaccharide (LPS) induced fever model in SD rats; type: in vivo; conditions: for Body temperature 2 hours after modeling / Body temperature 4 hours after modeling / Body temperature 6 hours after modeling / Body temperature 8 hours after modeling: LPS 20 μg/kg i.p., SD rats
Procedure: Animals: 230-260 grams of male SD rats; Drugs: lipopolysaccharide (LPS, SIGMA L-2880), aspirin (SIGMA A2093), protein BD-10; Instruments: electronic balance (SARTORIUS BP121S type), electronic clinical thermometer (CITIZEN CT-513W type).
Method: the method of intraperitoneal injection of Lipopolysaccharide to replicate rat fever model.
Preparation of experimental animals: After the experimental animals adapt to the experimental environment (temperature 22° C.±2° C., relative humidity 50%±2%) for 1 day. Pre-adaptation to measure rectal temperature at 8:00 and 15:00, rats were fasted and water was taken freely 12 h before experiment, and let the animal to empty its feces before measuring the rectal temperature. Apply petroleum jelly to the electronic thermometer probe before each temperature measurement. Insert the rat rectum 2 cm (can be marked at 2 cm to ensure that the depth of each insertion is consistent), and record the body temperature after the reading is stable.
Intraperitoneal injection of lipopolysaccharide to replicate rat fever model: The body temperature of the rats was measured before modeling. Qualified rats with a body temperature of 36.2-37.3° C. were selected and randomly divided into groups with 8 rats in each group. After oral administration of aspirin and different doses of protein BD-10, lipopolysaccharide (20 μg/kg, 2 ml/kg) was injected intraperitoneally immediately, and the normal control group was injected intraperitoneally with an equal volume of normal saline. The body temperatures of the rats were monitored after 2 hours for a total of 8 hours.
According to the body temperature measured at each time point on the day of the experiment, calculate the mean, standard deviation and standard error of the body temperature of each group of rats. The data of each group was compared with TTEST, and P<0.05 was considered as a significant difference.

[4] = test system: acetic acid writhing of ICR mice; experiment: Acetic acid writhing test in ICR mice; type: in vivo; conditions: for Frequency of writhing / Writhing incubation period: observed within 15 minutes
Procedure: Animals: male ICR mice; Drugs and reagents: aspirin, physiological saline, glacial acetic acid, protein BD-10. Experiment grouping: • Model group; • Aspirin 300 mg/kg group; • Protein BD-10, 50 mg/kg group, 200 mg/kg group.
One day after the experimental animals adapt to the environment, Aspirin 300 mg/kg, protein BD-10 50 mg/kg, 200 mg/kg were given orally one hour in advance, and the administration volume was 10 ml/kg; Then, 0.6% acetic acid solution was injected intraperitoneally, and the incubation period (seconds) and frequency of writhing in the animal was observed within 15 minutes.
Calculate the mean and standard error of the data in each group. Compared with the model group by TTEST, P<0.05 was considered as statistically different.

[5] = BD-10 50 mg/kg oral one hour before 0.6% acetic acid i.p.
[6] = BD-10 200 mg/kg oral one hour before 0.6% acetic acid i.p.

B1: BD-10: recombinant keratin with amino acid sequence SEQ ID NO:1, expressed in E. coli inclusion bodies, band around 55 kD (protein, listed as Bos taurus)
chain: MSCRSYRISPGYSVTRTFSSCSAVAPKTGSRCCITAAPYRGVSCYRGLTGFGSRSVSALGSCGPRIAVGGFRAGSCNRSFGYRSGGVGGLSPPCITTVSVNESLLTPLNLEIDPNAQCVKHEEKEQIKNLNSRFAAFIDKVRFLEQQNKLLETKWQFYQNQRCCESNLEPLFNGYIETLRREAEHVEADGGRLASELNHVQEVLEGYKKKYEEEVALRATAENEFVVLKKDVDCAYLRKSDLEANVEALVEESNFLKRLYDEEIQILNAHISDTSVIVKMDNSRDLNMDCVVAEIKAQYDDIASRSRAEAESWYRNKCEEMKATVIRHGETLRRTKEEINELNRIIQRLTAEIENAKCQRTKLEAAVAEAEQQGEAALNDARCKLAGLEEALQKAKQDMACLLKEYQEVMNSKLGLDIEIATYRRLLEGEEQRLCEGVGSVNVCVSSSRGGVTCGGLTYSTTAGRQIASGPVATGGSITVLAPDSCVPCQPRASSFSCGSSRSVRFA
[1]; BD-10 20 mg/kg oral
  Incubation period (cough): 31.4 ± 2.6 s
  Number of coughs: 55.3 ± 4.2
[1]; BD-10 50 mg/kg oral
  Incubation period (cough): 29.4 ± 3.0 s
  Number of coughs: 59.8 ± 3.9
[1]; BD-10, dose not stated, not statistically significant
  Effect on incubation period and number of coughs (in words): has a tendency to prolong the incubation period and reduce the number of coughs
[2]; BD-10 50 mg/kg intragastric
  Grade IV seizure rate: 80%
  mortality rate: 0%
  Grade III seizure incubation period: 63 ± 2 s
  Grade IV seizure incubation period: 296 ± 106 s
  Cases of deaths: 0
  Cases of Grade IV: 8
[2]; BD-10 200 mg/kg intragastric
  Grade IV seizure rate: 70%
  mortality rate: 0%
  Grade III seizure incubation period: 81 ± 9 s
  Grade IV seizure incubation period: 359 ± 120 s
  Cases of deaths: 0
  Cases of Grade IV: 7
[2]; BD-10, PTZ model, no statistical difference compared with the model group
  Effect on incubation period of Grade IV epilepsy (in words): has a tendency to extend the incubation period
[3]; BD-10 10 mg/kg dose group, 2 hours after modeling, vs model group P<0.05
  Effect on body temperature of model rats (in words): can significantly reduce the body temperature
[3]; BD-10 10 mg/kg oral
  Body temperature 2 hours after modeling: 37.3 ± 0.1 °C
  Body temperature 4 hours after modeling: 37.8 ± 0.1 °C
  Body temperature 6 hours after modeling: 37.8 ± 0.1 °C
  Body temperature 8 hours after modeling: 37.6 ± 0.1 °C
[3]; BD-10 50 mg/kg oral
  Body temperature 2 hours after modeling: 37.3 ± 0.2 °C
  Body temperature 4 hours after modeling: 37.7 ± 0.2 °C
  Body temperature 6 hours after modeling: 37.9 ± 0.2 °C
  Body temperature 8 hours after modeling: 37.6 ± 0.1 °C
[3]; BD-10, dose not stated, 2 hours after modeling
  Effect on body temperature rise (in words, summary): has a significant effect of reducing body temperature rise
[4]; BD-10 50 mg/kg and 200 mg/kg dose groups, vs model group P<0.05
  Effect on writhing (in words): can significantly reduce the number of writhing mice
[4]; [5]
  Frequency of writhing: 22.7 ± 3.9 times
  Writhing incubation period: 237.4 ± 44.8 s
[4]; [6]
  Frequency of writhing: 19.8 ± 3.7 times
  Writhing incubation period: 251.2 ± 43.3 s
[4]; BD-10, dose not stated
  Effect on number of writhing times (in words, summary): can significantly reduce the number of writhing times
